Assay [1] addresses T1, Human GPA33 on GPA33+ colorectal cancer cell lines (Colo 205, LS 174T, SW 1222) (human, UniProt Q99795 22-319).
T1 construct: Endogenous GPA33 on human colorectal cancer cell lines; also called surface human GPA33; GPA33+ tumor cell lines
T1 sequence: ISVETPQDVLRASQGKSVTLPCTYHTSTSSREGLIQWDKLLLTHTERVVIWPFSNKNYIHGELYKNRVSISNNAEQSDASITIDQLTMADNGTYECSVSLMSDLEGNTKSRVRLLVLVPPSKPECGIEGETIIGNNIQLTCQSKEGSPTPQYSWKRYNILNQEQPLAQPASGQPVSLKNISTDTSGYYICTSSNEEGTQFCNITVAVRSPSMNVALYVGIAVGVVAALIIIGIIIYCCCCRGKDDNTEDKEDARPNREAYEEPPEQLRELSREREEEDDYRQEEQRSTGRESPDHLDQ
Briefly: FACS titration on Colo205 cells, geometric mean MFI (the text prints 2.46 nM and calls it IC50).

The target of assay [2] is T2, Human GPA33 (recombinant protein, Novoprotein) (human, UniProt Q99795 22-235).
T2 construct: Bought recombinant protein immobilized on a CM5 chip; also called GPA33 antigen; tumor antigen GPA33
T2 sequence: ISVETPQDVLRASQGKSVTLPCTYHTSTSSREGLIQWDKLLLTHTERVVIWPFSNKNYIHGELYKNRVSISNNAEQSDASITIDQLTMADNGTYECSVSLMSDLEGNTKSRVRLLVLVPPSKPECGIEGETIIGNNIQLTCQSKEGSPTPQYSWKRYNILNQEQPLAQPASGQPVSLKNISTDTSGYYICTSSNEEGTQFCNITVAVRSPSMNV
Briefly: SPR (Biacore), human GPA33 immobilized on CM5 chip, two-state fit, kd1. The essentials:
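Kinetic parameters, including the off-rate (kd1), were obtained by fitting surface plasmon resonance sensorgrams to a two-state binding model. On a Biacore T100 with recombinant human GPA33 immobilised on a CM5 chip, antibodies were passed over at five 2-fold serial dilutions from 20 nM. Runs used 25° C for the parent IgG1, and 25° C and 37° C for the bispecific formats.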
Background: In SPR one partner is held on a chip, and binding of the other changes the refractive index at the surface.

Assay [3] has as its target T1, Human GPA33 on GPA33+ colorectal cancer …. Put plainly: flow cytometry, LS 174T cells. For orientation: A flow cytometer gives signals particle by particle.
Assay [4] has the same target. Briefly: FACS binding to SW1222 cells (GPA33+).
Assay [5] has as its target T2, Human GPA33 (recombinant protein, …). Briefly: SPR. The procedure, abridged: (§1)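 Affinity (KD) was measured by surface plasmon resonance on a Biacore system, with recombinant human GPA33 (Novoprotein) immobilised on a CM5 sensor chip. Antibodies were injected at five concentrations, 2-fold serial dilutions starting at 20 nM. The sensorgrams were fitted kinetically to give rate constants and KD. Each KD is given as a ratio to the KD of a reference molecule.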

Assay [6] has as its target T1, Human GPA33 on GPA33+ colorectal cancer …. Briefly: flow cytometry, Colo 205 cells; Colo 205 cells.
Assay [7] shares this target. Briefly: FACS binding to Colo205 cells (GPA33+); the text prints 2.46 nM for this pair.
Assay [8] shares this target. Put plainly: FACS binding to LS174T cells (GPA33+).
The target is the same in assay [9]. Put plainly: flow cytometry, SW 1222 cells.
Assay [10] shares this target. Briefly: FACS binding to Colo205 cells (GPA33+).
Assay [11] has as its target T2, Human GPA33 (recombinant protein, …). Put plainly: SPR (Biacore), human GPA33 immobilized on CM5 chip, two-state fit, ka1. The essentials:
(§2)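 GPA33 immobilized on CM5 chip; five 2-fold dilutions of huA33 IgG1 or huA33 bispecifics from 20 nM injected. Kinetics measured at 25 °C for huA33, at both 25 °C and 37 °C for bispecifics; sensorgrams fitted to a two-state binding model.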

Assay [12] shares this target. Put plainly: SPR (Biacore), human GPA33 immobilized on CM5 chip, two-state fit. The essentials: as §2
Assay [13] has the same target. Briefly: SPR (Biacore), human GPA33 immobilised on the chip; KD relative to that of TC170. The procedure, abridged: as §1

Here are results for one molecule from patent publication US20240026037A1 (Memorial Sloan Kettering, published 2024).

B1: TC159 (bispecific antibody)
chain: EVQLVESGGGLVKPGGSLRLSCAASGFAFSTYDMSWVRQAPGKRLEWVATISSGGSYTYYLDSVKGRFTISRDNAKNSLYLQMNSLRAEDTAVYYCAPTTVVPFAYWGQGTLVTVSSGGGGSGGGGSGGGGSGGGGSGGGGSGGGGSDIQMTQSQSSLSTSVGDRVTITCKASQNVRTVVAWYQQKPGKSPKTLIYLASNRHTGVPSRFSGSGSGTEFTLTISNVQPEDFADYFCLQHWSYPLTFGSGTKLEIKRGGGGSGGGGSGGGGSGGGGSHVQLVESGGGLVQPGGSLRLSCAASGFSLTDYGVHWVRQAPGKGLEWLGVIWSGGGTAYNTALISRFTISRDNSKNTLYLQMNSLRAEDTAVYYCARRGSYPYNYFDAWGCGTLVTVSSGGGGSGGGGSGGGGSGGGGSGGGGSGGGGSQAVVTQEPSLTVSPGGTVTLTCGSSTGAVTASNYANWVQQKPGQCPRGLIGGHNNRPPGVPARFSGSLLGGKAALTLLGAQPEDEAEYYCALWYSDHWVIGGGTKLTVLGTPLGDTTHTSGKPLDGEYFTLQIRGRERFEMFRELNEALELKDAQAGKEPGGSGGAPHHHHHH
notes: Previously described GPA33xDOTA SADA clone whose GPA33 scFv comes from another clone; Carries the p53 SADA (tetramerization) domain
As a reminder, the EC50 is the concentration at which the effect is half-maximal. A word on the koff: it is a measure of how fast the partners let go of each other. One may read the IC50 as the concentration at which inhibition is half-maximal. Broadly, the kon is the second-order rate constant of association. Broadly, the Kd is the concentration at which binding is half-saturated. B1: the EC50 in [1] stood at 2.47 nM; in [6] it was 2.46 nM; in [7], 2.47 nM. Also, the off-rate (koff) in assay [2] was found to be 0.00181 s⁻¹. The IC50 in assay [3] was found to be 1.22 nM; in assay [9], 0.4 nM. The “fold change of binding EC50 (relative to TC170, lower is better)” value in [4] amounted to 0.24; in assay [8] it was 3.94; in assay [10], 3.34. Further, the “fold higher affinity than TC160” value in [5] worked out at 3 fold. In [11], the kon was 4.09e+06 M⁻¹ s⁻¹. For the same molecule, the Kd in assay [12] was found to be 0.0216 nM. The ka2 in [12] worked out at 0.00613 s⁻¹. In assay [12], the kd2 came to 0.000315 s⁻¹. In [13], the “Fold change of KD (relative to TC170, lower is better)” value was determined as 1.4.
